Key:
DR4-Fc = DR4-Fc (UniProt O00220); assay: BLI; Octet; DR4-Fc or DR5-Fc immobilised on protein A-coated biosensors, inserted into solutions of TRAIL proteins at different concentrations (2.5-50 nM)
DR5-Fc = DR5-Fc (UniProt O14763); assay: as above
UniProt O14763, sequence (O14763 56-210): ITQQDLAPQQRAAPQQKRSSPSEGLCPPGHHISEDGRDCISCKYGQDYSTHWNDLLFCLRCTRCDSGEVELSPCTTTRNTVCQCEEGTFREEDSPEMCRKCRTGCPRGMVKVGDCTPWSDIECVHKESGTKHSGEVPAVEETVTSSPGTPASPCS

UniProt O00220, sequence (O00220 24-239): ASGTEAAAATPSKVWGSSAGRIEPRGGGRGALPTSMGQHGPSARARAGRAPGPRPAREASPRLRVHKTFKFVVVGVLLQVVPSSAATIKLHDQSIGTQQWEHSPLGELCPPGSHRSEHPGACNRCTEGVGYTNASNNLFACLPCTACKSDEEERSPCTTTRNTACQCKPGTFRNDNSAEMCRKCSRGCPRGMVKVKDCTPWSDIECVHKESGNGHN

**Q.** How did the Kd (DR4-Fc) turn out when “RGR-TRAIL (tumor-homing RGR peptide fused to the N-terminus of TRAIL) (ligand)” was run?
**A.** 1.1 nM

**Q.** What about the Kd (DR5-Fc) of the same substance?
**A.** 0.46 nM
